Drawing on article PMC5061333, this text covers binding for one sequence.

The target of this data set is ASC (UniProt Q9ULZ3). In words: EMSA. Particulars: EMSA: 100 mM Tris, 500 mM NaCl, 10 mM DTT, pH 7, 15°C 30 min; 3-5 μg DNA, 0.2-0.65 μg recombinant protein or 5 μg nuclear extract; 6% native PAGE.
ASC, sequence (Q9ULZ3 whole entry): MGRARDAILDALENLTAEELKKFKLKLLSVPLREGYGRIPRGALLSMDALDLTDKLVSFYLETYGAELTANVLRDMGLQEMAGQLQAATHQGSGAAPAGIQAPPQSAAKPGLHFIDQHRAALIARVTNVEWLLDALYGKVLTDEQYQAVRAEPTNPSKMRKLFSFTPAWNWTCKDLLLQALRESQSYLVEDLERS

For “ATTTATATAGCTTCTCAGCCTCGAATGTGGAAATAGGTGACTCATTTGAGTGTTTTCTTTCTTTTTAGAGTCTACAGAACTTTGAAAGTATGTGTTATTTTTCATTAACTAAAACGAGGAAGTATTACATCGTTATTGGCAGGAAGCACACAATGTATTTGTCTTTCAAAGGATTTTTTTTTCTGTCTGCTGCATAAATTGACTCCATGAGAAACCTCATTTTTTTGCCAAAGTCAAATGACTGCTCTCATAGGTATCA (double strand) [MMP7 promoter P1]”, the binding entry was “binds”.
